Bridge positions count the residues as written; N and C are the ends. Square brackets hold non-standard residues; d marks the D form. Ends that are not written are not given here. R8 = C=CCCCCCC[C@@](C)(N)C(=O)O; S5 = C=CCCC[C@](C)(N)C(=O)O

Assay [1] deals with T1, recombinant APC/C (anaphase promoting complex/cyclosome) (UniProt Q9NYG5 1-84; Q9UJX6 1-822; Q9H1A4 1-1944; P30260 1-824). The assay can be described thus: cell-based or functional assay.
Assay [2] deals with T1, recombinant APC/C (anaphase promoting …). The assay can be described thus: enzyme kinetics (in vitro APC/C ubiquitination assay); 20 nM recombinant APC/C, 340 nM CDC20, UBA1, UBE2C K119R, ubiquitin; securin titrated from 50 nM to 5 μM with and without H6; initial velocity; 30 °C, 30 mM HEPES pH 7.4, 175 mM NaCl, 8 mM MgCl2; model for noncompetitive inhibition. The settings on record: both partners purified.

T1 sequence (P30260 whole entry, looked up, chain 1 of 4): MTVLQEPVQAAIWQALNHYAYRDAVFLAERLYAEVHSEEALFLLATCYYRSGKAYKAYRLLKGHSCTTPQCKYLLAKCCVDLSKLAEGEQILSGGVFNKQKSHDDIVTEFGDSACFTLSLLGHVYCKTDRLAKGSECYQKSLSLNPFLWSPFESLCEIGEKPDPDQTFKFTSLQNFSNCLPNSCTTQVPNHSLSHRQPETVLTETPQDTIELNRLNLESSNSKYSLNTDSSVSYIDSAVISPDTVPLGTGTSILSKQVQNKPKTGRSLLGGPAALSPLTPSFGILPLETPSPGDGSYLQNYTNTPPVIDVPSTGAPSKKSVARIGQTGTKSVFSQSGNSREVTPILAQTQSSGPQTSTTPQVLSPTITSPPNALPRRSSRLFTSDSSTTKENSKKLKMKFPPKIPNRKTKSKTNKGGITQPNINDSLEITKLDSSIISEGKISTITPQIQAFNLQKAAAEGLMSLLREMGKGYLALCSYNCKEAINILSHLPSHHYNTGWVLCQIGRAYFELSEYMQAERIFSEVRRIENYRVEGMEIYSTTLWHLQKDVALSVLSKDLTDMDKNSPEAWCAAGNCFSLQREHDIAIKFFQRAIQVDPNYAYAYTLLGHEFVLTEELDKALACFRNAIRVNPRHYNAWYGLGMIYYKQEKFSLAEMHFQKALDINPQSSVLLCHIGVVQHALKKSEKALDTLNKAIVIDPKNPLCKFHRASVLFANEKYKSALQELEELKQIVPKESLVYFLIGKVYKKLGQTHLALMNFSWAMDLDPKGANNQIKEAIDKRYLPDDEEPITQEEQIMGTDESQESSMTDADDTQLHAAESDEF
T1 sequence (Q9H1A4 whole entry, looked up, chain 2 of 4): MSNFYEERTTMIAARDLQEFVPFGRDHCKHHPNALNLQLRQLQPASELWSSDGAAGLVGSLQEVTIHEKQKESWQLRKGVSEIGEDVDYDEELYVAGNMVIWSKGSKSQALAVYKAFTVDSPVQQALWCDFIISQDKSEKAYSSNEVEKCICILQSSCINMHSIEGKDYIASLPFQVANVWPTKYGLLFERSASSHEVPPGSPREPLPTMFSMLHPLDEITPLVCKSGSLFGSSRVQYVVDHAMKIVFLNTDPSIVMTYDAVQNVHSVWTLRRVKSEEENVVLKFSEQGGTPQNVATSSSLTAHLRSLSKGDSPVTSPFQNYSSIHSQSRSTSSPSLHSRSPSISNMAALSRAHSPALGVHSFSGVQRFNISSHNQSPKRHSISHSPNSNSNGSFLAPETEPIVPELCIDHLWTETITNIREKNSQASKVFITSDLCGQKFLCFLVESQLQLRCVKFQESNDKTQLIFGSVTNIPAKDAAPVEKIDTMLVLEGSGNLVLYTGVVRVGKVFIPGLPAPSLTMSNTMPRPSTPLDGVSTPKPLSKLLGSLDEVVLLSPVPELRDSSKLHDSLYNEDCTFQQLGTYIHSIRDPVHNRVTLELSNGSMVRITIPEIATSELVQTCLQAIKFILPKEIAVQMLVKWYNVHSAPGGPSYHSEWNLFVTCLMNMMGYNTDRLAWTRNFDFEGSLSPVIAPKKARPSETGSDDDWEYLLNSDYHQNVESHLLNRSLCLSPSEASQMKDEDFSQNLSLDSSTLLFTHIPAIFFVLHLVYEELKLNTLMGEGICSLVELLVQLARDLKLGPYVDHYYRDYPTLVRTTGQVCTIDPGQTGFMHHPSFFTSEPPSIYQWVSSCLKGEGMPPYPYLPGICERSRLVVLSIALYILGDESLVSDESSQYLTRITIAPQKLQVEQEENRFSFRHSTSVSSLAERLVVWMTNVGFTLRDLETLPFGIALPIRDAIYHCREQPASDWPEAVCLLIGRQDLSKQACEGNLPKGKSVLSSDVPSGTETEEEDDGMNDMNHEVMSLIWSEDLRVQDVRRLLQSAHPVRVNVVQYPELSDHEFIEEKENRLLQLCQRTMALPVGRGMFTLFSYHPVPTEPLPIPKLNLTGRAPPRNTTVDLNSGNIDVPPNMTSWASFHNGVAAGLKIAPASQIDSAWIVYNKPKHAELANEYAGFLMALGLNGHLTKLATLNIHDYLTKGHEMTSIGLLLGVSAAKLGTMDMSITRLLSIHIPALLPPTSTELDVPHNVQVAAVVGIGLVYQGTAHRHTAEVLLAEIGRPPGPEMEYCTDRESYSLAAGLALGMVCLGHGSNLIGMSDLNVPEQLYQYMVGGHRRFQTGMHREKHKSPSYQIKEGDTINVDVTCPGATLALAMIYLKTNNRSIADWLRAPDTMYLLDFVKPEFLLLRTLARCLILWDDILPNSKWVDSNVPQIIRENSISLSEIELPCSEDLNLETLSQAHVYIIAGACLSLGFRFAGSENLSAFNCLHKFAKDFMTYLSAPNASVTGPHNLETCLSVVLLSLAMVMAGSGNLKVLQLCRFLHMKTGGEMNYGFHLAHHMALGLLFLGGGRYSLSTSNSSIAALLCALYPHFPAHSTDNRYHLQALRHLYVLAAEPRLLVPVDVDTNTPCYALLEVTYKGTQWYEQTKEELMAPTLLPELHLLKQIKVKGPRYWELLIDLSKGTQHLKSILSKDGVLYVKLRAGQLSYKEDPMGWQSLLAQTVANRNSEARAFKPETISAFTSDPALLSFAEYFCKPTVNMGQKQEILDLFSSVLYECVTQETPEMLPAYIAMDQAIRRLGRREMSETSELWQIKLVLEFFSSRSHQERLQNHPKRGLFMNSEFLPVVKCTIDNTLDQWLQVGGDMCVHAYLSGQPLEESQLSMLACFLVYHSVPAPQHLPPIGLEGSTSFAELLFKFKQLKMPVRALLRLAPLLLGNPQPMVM
T1 sequence (Q9UJX6 whole entry, looked up, chain 3 of 4): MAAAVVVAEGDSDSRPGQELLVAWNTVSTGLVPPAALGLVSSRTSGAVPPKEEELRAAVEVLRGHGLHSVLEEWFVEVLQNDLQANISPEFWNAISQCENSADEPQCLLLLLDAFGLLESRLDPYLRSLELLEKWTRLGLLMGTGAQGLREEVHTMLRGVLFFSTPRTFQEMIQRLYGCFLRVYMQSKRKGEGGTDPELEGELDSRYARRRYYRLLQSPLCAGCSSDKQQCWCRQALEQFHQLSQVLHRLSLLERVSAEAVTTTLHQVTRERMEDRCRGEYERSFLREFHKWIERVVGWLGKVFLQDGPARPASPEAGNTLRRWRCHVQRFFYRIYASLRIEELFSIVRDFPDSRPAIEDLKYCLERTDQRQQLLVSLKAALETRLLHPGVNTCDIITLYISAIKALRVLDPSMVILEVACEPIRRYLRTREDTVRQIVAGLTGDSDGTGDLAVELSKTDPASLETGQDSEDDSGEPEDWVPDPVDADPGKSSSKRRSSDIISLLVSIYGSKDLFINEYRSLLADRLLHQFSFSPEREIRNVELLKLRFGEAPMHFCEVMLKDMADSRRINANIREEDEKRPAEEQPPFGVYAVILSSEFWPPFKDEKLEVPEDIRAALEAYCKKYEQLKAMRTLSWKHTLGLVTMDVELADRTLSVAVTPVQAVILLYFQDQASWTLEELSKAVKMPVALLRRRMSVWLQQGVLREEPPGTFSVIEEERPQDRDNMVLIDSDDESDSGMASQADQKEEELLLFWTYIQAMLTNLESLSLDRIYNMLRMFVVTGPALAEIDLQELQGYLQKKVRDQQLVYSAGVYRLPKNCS
T1 sequence (Q9NYG5 whole entry, looked up, chain 4 of 4): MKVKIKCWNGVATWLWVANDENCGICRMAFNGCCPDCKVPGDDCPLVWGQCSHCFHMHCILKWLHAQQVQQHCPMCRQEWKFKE

Take EWW[R8]IKEIQR[S5]RRA (designed binder, staple 4-11) [H6]: the “IC50 of in vitro APC/C ubiquitination of the substrate, H6 titrated from 0.01 to 100 μM; blocks E2 recruitment to the RING domain of APC/C” value in assay [1] is 1.96 µM. Further, the Ki in assay [2] turned out to be 5.03 ± 0.79 µM.

Broadly, the Ki is a dissociation constant, usually derived from enzyme kinetics or from competition with a known ligand.
